Reference: patent US20220283175A1 (ENCODIA, published 2022)
No end group written: not given here. *: point of attachment. Benzoyl(4-SO2NH2) = NS(=O)(=O)c1ccc(C(=O)*)cc1; M65 = not defined here; M67 = not defined here; M75 = not defined here; M76 = not defined here; M88 = not defined here

Each binder was assayed against T1, wild-type human carbonic anhydrase II (hCAII) protein (human, UniProt P00918 4-259) (assay: cell-based or functional assay).

| Binder | P2 dependence: fold difference of IC50 (SABA-AF against SABA-AA) |
| --- | --- |
| {Benzoyl(4-SO2NH2)}-AFAAE-NH2 (SMILES C[C@H](NC(=O)c1ccc(S(N)(=O)=O)cc1)C(=O)N[C@@H](Cc1ccccc1)C(=O)N[C@@H](C)C(=O)N[C@@H](C)C(=O)N[C@@H](CCC(=O)O)C(N)=O) [(SAB)AFAAE] | ~4 fold |

Molecular target: T1, wild-type human carbonic anhydrase II …
Test: cell-based or functional assay
Remark: another data set of the same source

| Binder | IC50 (µM), hCAII functional assay |
| --- | --- |
| {Benzoyl(4-SO2NH2)}-AAAAE-NH2 (SMILES C[C@H](NC(=O)c1ccc(S(N)(=O)=O)cc1)C(=O)N[C@@H](C)C(=O)N[C@@H](C)C(=O)N[C@@H](C)C(=O)N[C@@H](CCC(=O)O)C(N)=O) [(SAB)AAAAE] | 0.0484 µM |
| {Benzoyl(4-SO2NH2)}-EAAAE-NH2 (SMILES C[C@H](NC(=O)[C@H](C)NC(=O)[C@H](CCC(=O)O)NC(=O)c1ccc(S(N)(=O)=O)cc1)C(=O)N[C@@H](C)C(=O)N[C@@H](CCC(=O)O)C(N)=O) [(SAB)EAAAE] | 0.0993 µM |
| {Benzoyl(4-SO2NH2)}-AFAAE-NH2 (SMILES C[C@H](NC(=O)c1ccc(S(N)(=O)=O)cc1)C(=O)N[C@@H](Cc1ccccc1)C(=O)N[C@@H](C)C(=O)N[C@@H](C)C(=O)N[C@@H](CCC(=O)O)C(N)=O) [(SAB)AFAAE] | 0.183 µM |
| {Benzoyl(4-SO2NH2)}-LAAAE-NH2 (SMILES CC(C)C[C@H](NC(=O)c1ccc(S(N)(=O)=O)cc1)C(=O)N[C@@H](C)C(=O)N[C@@H](C)C(=O)N[C@@H](C)C(=O)N[C@@H](CCC(=O)O)C(N)=O) [(SAB)LAAAE] | 0.0284 µM |
| {Benzoyl(4-SO2NH2)}-SAAAE-NH2 (SMILES C[C@H](NC(=O)[C@H](C)NC(=O)[C@H](CO)NC(=O)c1ccc(S(N)(=O)=O)cc1)C(=O)N[C@@H](C)C(=O)N[C@@H](CCC(=O)O)C(N)=O) [(SAB)SAAAE] | 0.153 µM |
| {Benzoyl(4-SO2NH2)}-HAAAE-NH2 (SMILES C[C@H](NC(=O)[C@H](C)NC(=O)[C@H](Cc1c[nH]cn1)NC(=O)c1ccc(S(N)(=O)=O)cc1)C(=O)N[C@@H](C)C(=O)N[C@@H](CCC(=O)O)C(N)=O) [(SAB)HAAAE] | 0.148 µM |
| {Benzoyl(4-SO2NH2)}-FAAAE-NH2 (SMILES C[C@H](NC(=O)[C@H](C)NC(=O)[C@H](Cc1ccccc1)NC(=O)c1ccc(S(N)(=O)=O)cc1)C(=O)N[C@@H](C)C(=O)N[C@@H](CCC(=O)O)C(N)=O) [(SAB)FAAAE] | 0.045 µM |

Molecular target: T1, wild-type human carbonic anhydrase II …
Test: cell-based or functional assay
Remark: another data set of the same source

| Binder | NTM-AAEIR IC50 (µM), colorimetric IC50 assay |
| --- | --- |
| M65-AAEIR (not fully specified; printed as M65-AAEIR; reading uncertain) [M65-AAEIR] | 0.515 µM |
| M88-AAEIR (not fully specified; printed as M88-AAEIR; reading uncertain) [M88-AAEIR] | 0.095 µM |
| M67-AAEIR (not fully specified; printed as M67-AAEIR; reading uncertain) [M67-AAEIR] | 0.073 µM |
| M75-AAEIR (not fully specified; printed as M75-AAEIR; reading uncertain) [M75-AAEIR] | 0.067 µM |
| M76-AAEIR (not fully specified; printed as M76-AAEIR; reading uncertain) [M76-AAEIR] | 0.077 µM |
